This passage reports EC50 results from US20250242041A1 (Seagen, published 2025).

Experiment [1] deals with T1, human αvβ6 on 293F:huβ6 cells (human, UniProt P06756 31-1048; P18564 22-788).
T1 chain 1: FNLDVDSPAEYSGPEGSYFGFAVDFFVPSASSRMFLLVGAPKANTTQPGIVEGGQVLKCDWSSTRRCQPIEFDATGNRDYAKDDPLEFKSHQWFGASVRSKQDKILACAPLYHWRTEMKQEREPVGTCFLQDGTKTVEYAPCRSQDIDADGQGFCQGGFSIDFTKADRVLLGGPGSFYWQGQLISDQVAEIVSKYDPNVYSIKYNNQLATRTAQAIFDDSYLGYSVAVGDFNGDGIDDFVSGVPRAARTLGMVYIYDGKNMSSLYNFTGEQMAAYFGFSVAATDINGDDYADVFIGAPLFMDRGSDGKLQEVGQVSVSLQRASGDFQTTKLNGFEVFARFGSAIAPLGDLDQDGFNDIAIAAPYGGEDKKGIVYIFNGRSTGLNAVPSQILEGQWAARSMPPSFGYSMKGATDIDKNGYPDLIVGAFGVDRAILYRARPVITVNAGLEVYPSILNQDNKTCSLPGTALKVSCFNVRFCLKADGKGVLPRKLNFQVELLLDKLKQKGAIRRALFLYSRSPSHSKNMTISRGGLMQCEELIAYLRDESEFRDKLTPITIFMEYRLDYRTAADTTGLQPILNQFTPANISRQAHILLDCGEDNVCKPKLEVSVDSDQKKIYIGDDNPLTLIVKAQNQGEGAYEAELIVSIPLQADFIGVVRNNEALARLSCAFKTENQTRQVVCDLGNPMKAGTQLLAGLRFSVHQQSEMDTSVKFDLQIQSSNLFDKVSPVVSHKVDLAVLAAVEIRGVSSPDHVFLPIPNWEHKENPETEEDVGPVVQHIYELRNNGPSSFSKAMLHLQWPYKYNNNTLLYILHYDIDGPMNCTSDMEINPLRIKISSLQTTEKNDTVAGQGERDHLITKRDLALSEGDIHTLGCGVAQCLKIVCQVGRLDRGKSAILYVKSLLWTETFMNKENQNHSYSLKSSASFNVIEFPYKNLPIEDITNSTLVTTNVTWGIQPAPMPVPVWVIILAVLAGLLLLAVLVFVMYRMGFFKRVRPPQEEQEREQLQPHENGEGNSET
T1 chain 2: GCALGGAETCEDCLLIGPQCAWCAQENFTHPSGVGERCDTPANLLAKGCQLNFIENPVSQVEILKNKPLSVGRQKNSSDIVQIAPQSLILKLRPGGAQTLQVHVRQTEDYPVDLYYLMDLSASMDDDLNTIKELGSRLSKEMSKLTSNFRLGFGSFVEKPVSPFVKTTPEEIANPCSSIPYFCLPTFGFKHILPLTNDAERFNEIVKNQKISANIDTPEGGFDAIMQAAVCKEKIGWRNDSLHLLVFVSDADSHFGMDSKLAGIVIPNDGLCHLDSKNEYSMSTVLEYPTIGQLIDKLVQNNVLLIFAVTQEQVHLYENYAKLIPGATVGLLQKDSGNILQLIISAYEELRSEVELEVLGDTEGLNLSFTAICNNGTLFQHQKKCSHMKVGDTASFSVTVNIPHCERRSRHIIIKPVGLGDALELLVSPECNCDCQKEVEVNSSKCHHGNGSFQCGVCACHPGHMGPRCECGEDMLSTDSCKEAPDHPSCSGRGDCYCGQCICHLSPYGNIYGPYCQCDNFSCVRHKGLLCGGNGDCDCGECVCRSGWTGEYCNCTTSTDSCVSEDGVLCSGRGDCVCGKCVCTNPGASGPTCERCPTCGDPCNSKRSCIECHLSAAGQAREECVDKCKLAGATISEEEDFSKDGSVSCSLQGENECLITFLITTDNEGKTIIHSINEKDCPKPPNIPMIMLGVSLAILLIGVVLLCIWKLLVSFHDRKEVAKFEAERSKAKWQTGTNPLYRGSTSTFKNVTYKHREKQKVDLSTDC
Put plainly: saturation binding on 293F cells; AF647-labeled.

In experiment [2] the target is T2, cyno αvβ6 on 293F:cynoβ6 cells (human;Macaca fascicularis, UniProt P06756 31-1048; A0A2K5TZ36 22-787).
T2 chain 1: T1 chain 1
T2 chain 2: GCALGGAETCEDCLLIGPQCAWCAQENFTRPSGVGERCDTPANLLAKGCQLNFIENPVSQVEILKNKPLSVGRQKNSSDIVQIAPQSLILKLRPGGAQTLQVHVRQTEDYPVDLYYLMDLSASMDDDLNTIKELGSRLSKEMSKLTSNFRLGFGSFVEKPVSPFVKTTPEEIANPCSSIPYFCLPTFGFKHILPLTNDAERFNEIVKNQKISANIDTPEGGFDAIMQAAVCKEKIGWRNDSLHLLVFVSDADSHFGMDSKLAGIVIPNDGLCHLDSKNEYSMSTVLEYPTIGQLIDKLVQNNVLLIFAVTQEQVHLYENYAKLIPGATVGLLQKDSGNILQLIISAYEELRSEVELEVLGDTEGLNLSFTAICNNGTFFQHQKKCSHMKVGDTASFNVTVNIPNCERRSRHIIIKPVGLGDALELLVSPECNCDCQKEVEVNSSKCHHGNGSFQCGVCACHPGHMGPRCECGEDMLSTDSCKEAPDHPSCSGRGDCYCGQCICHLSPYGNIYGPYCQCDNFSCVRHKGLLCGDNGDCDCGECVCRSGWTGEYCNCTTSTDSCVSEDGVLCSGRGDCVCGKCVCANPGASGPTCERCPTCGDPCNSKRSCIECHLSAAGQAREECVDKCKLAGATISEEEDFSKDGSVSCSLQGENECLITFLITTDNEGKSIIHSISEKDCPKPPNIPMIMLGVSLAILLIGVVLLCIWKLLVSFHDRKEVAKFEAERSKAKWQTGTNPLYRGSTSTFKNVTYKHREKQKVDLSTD
The experiment can be described thus: saturation binding on 293F cells; AF647-labeled.

B1: h2A2 HCLG humanized antibody (antibody, human IgG1, kappa, V domains shown)
VH: QFQLVQSGAEVKKPGASVKVSCKASGYSFTDYNVNWVRQAPGQGLEWIGVINPKYGTTRYNQKFKGRATLTVDKSTSTAYMELSSLRSEDTAVYYCTRGLNAWDYWGQGTLVTVSS
VL: DIQMTQSPSSLSASVGDRVTITCGASENIYGALNWYQQKPGKAPKLLIYGATNLEDGVPSRFSGSGSGRDYTFTISSLQPEDIATYYCQNVLTTPYTFGQGTKLEIKR
notes: Labelled with AlexaFluor-647 in the saturation assay; also called humanized 2A2 HCLG
With B1, the EC50 (in general, the concentration needed to bring the measured effect to its halfway point) in experiment [1] was found to be 0.3 nM; in experiment [2], 0.2 nM.
